According to US20050075488A1 (published 2005):
Numbering of substitutions follows the chain as printed.

T1: human IL-1α (human, UniProt P01583 113-271)
T1 sequence (looked up): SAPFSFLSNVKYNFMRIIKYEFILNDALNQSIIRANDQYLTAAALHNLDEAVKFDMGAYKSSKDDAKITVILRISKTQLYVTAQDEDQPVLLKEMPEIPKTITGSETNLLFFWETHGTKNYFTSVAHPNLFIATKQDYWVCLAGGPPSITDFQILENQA

B1: mouse monoclonal antibody Mu007 (antibody, V domains shown)
VH: QVQLVQSGAEVKKPGASVKVSCKVSGYTFSRYWIEWVRQAPGKGLEWIGEILPGNGNINYNEKFKGKATITADTSTDTAYMELSSLRSEDTAVYYCSTIYYDYDQGFTYWGQGTLVTVSA
VL: DIKMTQSPSSMYASLGERVTITCKASQDIDRYLSWFQQKPGKSPKTLIYRVKRLVDGVPSRFSGSASGQDYSLTISSLQYEDMGIYYCLQYDEFPYTFGGGTKLEIK
B2: humanized antibody Hu007 (antibody, human IgG1, kappa, V domains shown)
VH: B1 VH with A120S
VL: DIQMTQSPSSLSASVGDRVTITCKASQDIDRYLSWFQQKPGKAPKSLIYRVKRLVDGVPSRFSGSASGTDYTLTISSLQPEDFATYYCLQYDEFPYTFGQGTKLEIKR
notes: the listing entries may be nucleotide entries with a translation; also called Hu007 IgG1 monoclonal antibody

Key:
human IL-1β [1] = target: T2, human IL-1β (human, UniProt P01584 117-269); assay: cell-based or functional assay
human IL-1α = target: T1, human IL-1α; assay: BIAcore (refers to Example 9)
Protocol: Affinities and specificities of both Hu007 and Mu007 were determined using BIAcore measurements. BIAcore™ is an automated biosensor system that measures molecular interactions. (Karlsson, et al. (1991) J. Immunol. Methods 145: 229-240). In these experiments antibody was immobilized at low density on a BIAcoreTm chip. Ethyl-dimethylaminopropyl-carbodiimide (EDC) was used to couple reactive amino groups to purified goat anti-human IgG or oat anti-rabbit IgG to a flow cell of a carboxy-methyl (CM5) BIAcore™ sensor chip. Goat IgG was diluted in sodium cetate buffer, pH 4.0, and immobilized on a flow cell of a M5 chip using EDC to yield 1000 response units. Unreacted sites were blocked with ehanolamine. A flow rate of 60 μl/min was used. Multiple binding/elution cycles were performed by injection a 100 μl solution of 15 μg/mL Mu007 or Hu007 followed by human IL-1β, mouse IL-1β, rat IL-1β, cynomolgus monkey IL-1β, porcine IL-1β, human IL-1 receptor antagonist, and human IL-1α at decreasing concentrations for each cycle (e.g. 1500, 750, 375, 188, 94, 47, 23.5, 12, and 0 picomolar). Elution was performed with glycine-HCl, pH 1.5. BIAevaluation™ was used to analyze the kinetic data. Table 2 depicts the affinities of Hu007 and Mu007 for human and cynomolgus IL1β. […] Cynomolgus and porcein IL-1β had 100% binding to Hu007 relative to human IL-1β.

human IL-1β [2] = target: T2, human IL-1β; assay: cell-based or functional assay; remark: listed apart in the source
human IL-1β [3] = target: T2, human IL-1β; assay: BIAcore, antibody immobilized at low density, ligand flowed (refers to Example 9)
Protocol: The binding affinity of the Mu007 antibody was determined using surface plasmon resonance (BIAcore™). In these experiments antibody was immobilized at low density on a BIAcore™ chip and ligand was flowed past. Build up of mass at the surface of the chip was measured. This analytical method allows the determination in real time of both on and off rates for binding. The Mu007 antibody has an affinity of approximately 6.0 picomolar (See Example 9). […] (See example 9). Hu007 comprises heavy and light chains that correspond to SEQ ID NO:17 and SEQ ID NO:13, respectively.
Affinities and specificities of both Hu007 and Mu007 were determined using BIAcore measurements. BIAcore™ is an automated biosensor system that measures molecular interactions. (Karlsson, et al. (1991) J. Immunol. Methods 145: 229-240). In these experiments antibody was immobilized at low density on a BIAcoreTm chip. Ethyl-dimethylaminopropyl-carbodiimide (EDC) was used to couple reactive amino groups to purified goat anti-human IgG or oat anti-rabbit IgG to a flow cell of a carboxy-methyl (CM5) BIAcore™ sensor chip. Goat IgG was diluted in sodium cetate buffer, pH 4.0, and immobilized on a flow cell of a M5 chip using EDC to yield 1000 response units. Unreacted sites were blocked with ehanolamine. A flow rate of 60 μl/min was used. […]

human IL-1β [4] = target: T2, human IL-1β; assay: ELISA competition on coated human IL-1β, competitor biotinylated Mu007
Protocol: (§1) Wells of 96-well ELISA plates (Nunc-Immuno plate, Cat # 439454, NalgeNunc) were coated with 100 μμl of 0.5 μg/ml of human IL-1β in 0.2M sodium carbonate-bicarbonate buffer (pH 9.4) overnight at 4° C., washed with Wash Buffer, blocked with Superblock blocking buffer for 30 min at 37° C., and washed again with Wash Buffer. A mixture of biotinylated Mu007 (0.16 μg/ml final concentration) and competitor antibody (Mu007 or Hu007; starting at 100 μg/ml final concentration and serial 3-fold dilutions) in ELISA Buffer were added in triplicate in a final volume of 100 μl per well. As a no-competitor control, 100 μl of 0.16 μg/ml biotinylated Mu007 was used. As a background control, 100 μl of ELISA Buffer was used. ELISA plates were incubated at 37° C. for 2 hr. After washing the wells with Washing Buffer, 100 μl of 1 μg/ml HRP-conjugated streptavidin (Jackson ImmunoResearch) was added to each well. ELISA plates were incubated at room temperature for 30 min and washed with Washing Buffer. For color development, 100 μl/well of ABTS substrate was added. Color development was stopped by adding 100 μl/well of 2% oxalic acid. Absorbance was read at 415 nm.
(§2) Both Mu007 and Hu007 competed with biotinylated Mu007 in a concentration-dependent manner. […]

human IL-1β [5] = target: T2, human IL-1β; assay: ELISA competition on coated human IL-1β, competitor biotinylated Mu007, Exp. A
Protocol: as §1, §2

human IL-1β [6] = target: T2, human IL-1β; assay: ELISA competition on coated human IL-1β, competitor biotinylated Mu007, Exp. B
Protocol: as §1, §2

human IL-1β [7] = target: T2, human IL-1β; assay: ELISA competition on coated human IL-1β, competitor biotinylated Mu007, Exp. C
Protocol: as §1, §2

human IL-1β [8] = target: T2, human IL-1β; assay: ELISA competition on coated human IL-1β, competitor biotinylated Mu007, average
Protocol: as §1, §2

Row | Binder | inhibition of IL-1β stimulated proliferation of T1165.17 cells (3H-thymidine incorporation), average IC50 from three separate experiments (human IL-1β [1]) [nM] | binding result (human IL-1α) | IC50 (read off the curve) (human IL-1β [2]) [nM] | Kd (human IL-1β [3]) [nM] | neutralization of human IL-1β in the murine model of inflammatory stimulation, relative to Mu007 (human IL-1β [1]) | relative binding, fold less than that of Mu007 (human IL-1β [4]) [fold] | Difference (IC50 of Hu007 against IC50 of Mu007) (human IL-1β [5]) [ratio] | Difference (IC50 of Hu007 against IC50 of Mu007) (human IL-1β [6]) [ratio] | Difference (IC50 of Hu007 against IC50 of Mu007) (human IL-1β [7]) [ratio] | Difference (IC50 of Hu007 against IC50 of Mu007) (human IL-1β [8]) [ratio]
1 | B1 | 0.22 | no binding | ~0.2 | ~0.006 | – | – | – | – | – | –
2 | B2 | 0.48 | – | ~0.4 | 0.01 to 0.02 | ~0.33 fold of Mu007 | 1.3 | 0.98 | 0.88 | 0.82 | 0.89
